Assay results taken from patent US20130004522A1, “PHOTOTRIGGERED NANOPARTICLES FOR CELL AND TISSUE TARGETING” (priority 2009, published 2013).
Where no end group is shown, it is not given here. The star is where a group is joined. DMNB = 4,5-dimethoxy-2-nitrobenzyl photo-removable caging group, COc1cc(C*)c([N+](=O)[O-])cc1OC

Assays:
integrin β1 = integrin β1 (Homo sapiens, UniProt P05556); settings: previously shown; cited from earlier work
[1] = Un-caging of the caged peptide targeter in solution by HPLC-UV; type: physicochemical; settings: ten seconds post illumination, retention time shifts to that of the non-caged targeter
Procedure: HPLC assays were performed on an HP 1100 HPLC system. Samples were injected in 50-μl volumes onto a C18 column. The column was eluted with an aqueous solution at 1 ml/min. The peptides were detected by a UV detector with absorbance wavelength set at 230 nm.
In order to determine the un-caging ability of the targeter (e.g., the peptide GGGGY(DMNB)IGSR—NH2 (SEQ ID NO: 2)) leading to its transformation to the active state, solutions of non-caged peptide (GGGGYIGSR-NH2) (SEQ ID NO: 2), or caged peptides subjected or not subjected to 1 min of illumination were evaluated by HPLC-UV. Retention time in the column of the non-caged targeter was ˜20 min (FIG. 3A) while that of the non-illuminated caged targeter was longer (˜30 min, FIG. 3B) due to the caging group existence which increases the hydrophobicity of the peptide. Ten seconds post illumination a shift in the retention time had occurred and the peptide had exited the column after ˜20 min (FIG. 3C).

integrin β1, sequence (P05556 21-798, species assumed): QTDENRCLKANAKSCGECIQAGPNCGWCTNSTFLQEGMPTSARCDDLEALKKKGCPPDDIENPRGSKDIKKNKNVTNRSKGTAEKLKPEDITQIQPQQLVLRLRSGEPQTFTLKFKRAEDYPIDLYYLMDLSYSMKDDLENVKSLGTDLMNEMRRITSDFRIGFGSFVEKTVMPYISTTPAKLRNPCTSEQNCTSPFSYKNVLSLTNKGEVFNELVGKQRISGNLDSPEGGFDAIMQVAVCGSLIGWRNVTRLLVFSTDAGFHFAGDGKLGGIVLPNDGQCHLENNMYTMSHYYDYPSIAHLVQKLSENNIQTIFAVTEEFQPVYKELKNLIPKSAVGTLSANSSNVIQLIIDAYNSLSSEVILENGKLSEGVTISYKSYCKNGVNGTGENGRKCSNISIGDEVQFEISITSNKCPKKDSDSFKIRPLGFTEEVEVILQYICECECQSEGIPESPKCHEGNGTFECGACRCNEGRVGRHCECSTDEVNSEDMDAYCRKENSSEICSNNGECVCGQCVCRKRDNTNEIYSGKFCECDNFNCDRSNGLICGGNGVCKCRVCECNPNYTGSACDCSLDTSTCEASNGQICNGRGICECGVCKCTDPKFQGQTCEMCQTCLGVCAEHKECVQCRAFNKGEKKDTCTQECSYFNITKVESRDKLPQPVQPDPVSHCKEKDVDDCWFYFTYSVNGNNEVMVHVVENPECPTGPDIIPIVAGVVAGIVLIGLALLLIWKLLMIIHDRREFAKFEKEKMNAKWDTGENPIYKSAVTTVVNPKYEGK

Substance | cell adhesion and migration (integrin β1) | release of the caging group from the peptide after illumination [1]
CDPGYIGSR | promote cell adhesion and migration | –
GGGGY(DMNB)IGSR—NH2 (GGGGY(DMNB)IGSR-NH2; N-terminus assumed; SMILES CC[C@H](C)[C@H](NC(=O)[C@H](Cc1ccc(OCc2cc(OC)c(OC)cc2[N+](=O)[O-])cc1)NC(=O)CNC(=O)CNC(=O)CNC(=O)CN)C(=O)NCC(=O)N[C@@H](CO)C(=O)N[C@@H](CCCNC(=N)N)C(N)=O) | – | quick release of the caging group
YIGSR-NH2 | promote cell adhesion and migration | –
